From patent publication US10508147B2, “Anti-nodal antibodies and methods of using same” (ANN AND ROBERT H. LURIE CHILDREN'S HOSPITAL OF CHICAGO, priority 2014, dated 2019)
Several values for one entry are separate records, joined by “and”; a condition that tells them apart may be missing. Equal values may be shown once.

Target: T1, rhNodal (Homo sapiens, UniProt Q96S42)
T1 construct: E. coli derived His238 Leu347, with an N-terminal Met; purchased R&D System 3218ND; host or cells: E. coli
T1 sequence (Q96S42 238-347): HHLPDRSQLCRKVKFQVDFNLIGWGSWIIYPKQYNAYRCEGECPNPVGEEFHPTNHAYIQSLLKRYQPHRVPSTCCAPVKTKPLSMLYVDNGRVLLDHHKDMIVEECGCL
Experiment: SPR direct binding of mAbs and 3D1 fragments to rhNodal immobilized on a CM5 sensor chip
Experimental: Antibodies (mAbs) that selectively recognized wild type human Nodal (E49E50) were further screened in order to identify mAbs that bound full length Nodal. Surface plasmon resonance (SPR) biosensor direct binding assay was used. Recombinant human Nodal protein (rhNodal, E. coli derived His238 Leu347, with an N-terminal Met Accession # Q96S42, cat. num 3218ND, R&D System) was immobilized on a CM5 sensor chip.
SPR analyses were performed on a Biacore 3000 instrument from GE Healthcare, using CM5 sensor chips and certified HBS buffer (20 mM HEPES, 0.15 M NaCl, pH 7.4, P20, 0.005%). Protein immobilization was carried out following the canonical amine coupling chemistry using the surface immobilization wizard procedure, operating at 5 μL/min. Channels were activated with EDC/NHS for 7 min; for the binding assays of purified mAbs to Nodal protein, rhNodal, opportunely diluted in the pre-selected sodium acetate buffer pH 4.5, was coupled until a 4000 RU level was achieved. Residual reactive groups on the sensor chip surface were deactivated by addition of 1.0 M ethanolamine hydrochloride, pH 8.5. Antibody binding was tested at 20 μL/min injecting solutions of 3D1 (60 μL) in HBS-EP at increasing concentrations (6-100 nM). A 10 mM NaOH solution was used to regenerate the chip surface.
After the single-dose screening, dose-dependent binding analyses were carried out with the two antibodies, 3D1 and 5F10, able to bind the full-length protein. Binding of 3D1 was carried out at concentrations ranging between 6 and 100 nM. For 5F10 higher concentrations were required (100, 250, 500 and 750 nM). Dissociations were monitored for at least 500 s. To carry out the mapping of the 3D1 epitope, the whole antibody was immobilized at 5 μg/mL in 10 mM NaAc buffer pH 5 at a flow rate of 5 μL/min by standard amine coupling chemistry on a CM5 sensor chip. The immobilization level reached with the mAb was about 5350 RU. On another channel of the same sensor chip, the 3D1 Fab′ was immobilized at 10 μg/mL in 10 mM NaAc buffer pH 4.5 at a flow rate of 5 μL/min, following the standard amine coupling chemistry. The amount of immobilized Fab′ was about 2570 RU. Residual reactive groups were deactivated by 1M ethanolamine hydrochloride, pH 8.5. The blank channel was prepared as already described. Real-time binding analyses were performed at a flow rate of 20 μL/min, using HBS-EP buffer, injecting a constant sample volume of 60 μL. Peptides opportunely diluted in HBS-EP buffer were injected at the following concentrations: 0.5, 1, 2.5, 5, 10, and 20 μM. Dissociations were monitored for at least 500 s; the regeneration solution was 5 mM NaOH.
For each analysis, experimental sensorgrams were aligned, subtracted of blank signals and overlapped. All mathematical manipulations and fitting were performed using the BiaEvaluation software, vers. 4.1 from GE Healthcare. All experimental data gave optimal fittings when processed assuming a 1:1 Langmuir binding interaction.
SPR analyses were performed at 25° C. using HBS as running buffer. Protein immobilization was carried out following the canonical amine coupling chemistry using the surface immobilization wizard procedure, operating at 5 μL/min. Channels were activated with EDC/NHS [N-(3-dimethylaminopropyl)-N′-ethylcarbodiimide hydrochloride(EDC)/[…](NHS) for 7 min; for the binding assays, rhNodal, appropriately diluted in the pre-selected sodium acetate buffer pH 4.5, was coupled until a 4000 RU level was achieved. Residual reactive groups on the sensor chip surface were deactivated by addition of 1.0 M ethanolamine hydrochloride, pH 8.5. Antibody binding was tested at 20 μL/min injecting solutions of 3D1 (60 μL) in HBS at increasing concentrations (6.0 nM-100 nM). A 10 mM NaOH solution was used to regenerate the chip surface. […]

average kd: 0.000655 s⁻¹ | Kd (Average over concentrations): 1.42 nM | ka (Average over concentrations): 695000 M⁻¹ s⁻¹ | kd (Average over concentrations): 0.000655 s⁻¹ | Kd (Example 1, hNodal immobilized on CM5 chip, antibody injected): ~1.3 nM | Kd (Examples 2 and 4, running text, averaged over dose-dependent runs): 1.42 nM and 1.4 nM | Kd (analyte injected at 6 nM): 0.491 nM | ka (analyte injected at 6 nM): 1.28e+06 M⁻¹ s⁻¹ | kd (analyte injected at 6 nM): 0.000629 s⁻¹ | Kd (analyte injected at 12 nM): 0.698 nM | ka (analyte injected at 12 nM): 979000 M⁻¹ s⁻¹ | kd (analyte injected at 12 nM): 0.000683 s⁻¹ | Kd (analyte injected at 25 nM): 0.968 nM | ka (analyte injected at 25 nM): 642000 M⁻¹ s⁻¹ | kd (analyte injected at 25 nM): 0.000622 s⁻¹ | Kd (analyte injected at 50 nM): 1.93 nM | ka (analyte injected at 50 nM): 361000 M⁻¹ s⁻¹ | kd (analyte injected at 50 nM): 0.000697 s⁻¹ | Kd (analyte injected at 100 nM): 3.03 nM | ka (analyte injected at 100 nM): 212000 M⁻¹ s⁻¹ | kd (analyte injected at 100 nM): 0.000644 s⁻¹
B1: 3D1: mouse monoclonal anti-Nodal antibody raised against hNodal(44-67); light chain SEQ ID NO:1, heavy chains SEQ ID NO:2 and 3 (protein)
light: DIKMTQSPASLSASVGETVTITCRASGNIHNYLAWYQQKQGKSPQLLVYNAKTLADGVPSRFSGSGSGTQYSLKINSLQPEDFGSYYCQHFWSTPHVRCWDQAGTETEAW
heavy 1: VKLVESGGGLVKPGGSLKLSCAASGFTFSSYAMSWVRQTPEKRLEWVASISSGGCTYYPDSVKGRFTISRDNARNILYLQMSSLRSEDTAMYYCARGSMITADGNSLLLCYGLLGSRNLXHR
heavy 2: VKLVESGGGLVQPGGSMKLSCVASGFTFRNYWMSWVRQSPEKGLEWVAEIRLKSDNYAARYAESVKGKFTISRDDSKSRLYLQMNSLRAEDTGIYYCTGIRRFAYWGQGTL
modifications: not fully specified; (120)..(120) Xaa can be any naturally occurring amino acid
ability to bind the full-length rhNodal protein (single-dose SPR screening, mAbs at 100 nM): able to bind the full-length rhNodal protein
